According to the RNAGym collection of RNA variant scans (doi:10.1101/gr.219683.116):

B1: mRNA-splicing (parent)
chain: AGUUGCUGCUGGGAGCUCCAGCACAGUGAAAUGGACAGAAGGGCAGAGCAA

Variants of: B1
Test: exon inclusion enrichment index; higher = more inclusion; WT1 exon 5 minigene, HEK293

Point of comparison: G5U G8U C9U A39G A40U, “exon inclusion enrichment index” value 0.00232. Against it:
- G5A C6G U7G C9A A37G G38A — lower, 0.0012
- G5C C6A U7C G8A U10A G41U — higher, 0.102
- G5C C6A U7C G8A U10A G41A — higher, 0.0572
- G5C C6A U7C G8A U10A U17A C18G — higher, 0.0895
- G5A C6U U7A G8U C9A C19A A20G — higher, 0.00271
- G5U C9U — higher, 0.393
- G5U C9A — higher, 0.991
- G5A U7C G8A U10C G41U G42C — higher, 2.97
- G5A U7C G8A U10C A37G G38U — higher, 0.991
- G5C C6G U7C U10C C44G A45U — higher, 3.36
- G5A U7C G8A C9G U10C — higher, 1.65
- G5A U7C G8A U10C C16A U17G — higher, 1.33
- G5C C6A U7C G8A U10A G12U G13A — higher, 0.0173
- C6A U7A C9A U10A U27G G28C — higher, 0.369
- C6A U7A C9A U10A U27C G28A — higher, 0.886
- G5U C6A G8C C9U U10C — higher, 0.611
- C6A U7A C9A U10A C44A — higher, 1.49
- G5A C6G U7G C9A U17C — lower, 0.00172
- G15C C16U — higher, 0.0653
- C44U A45U — higher, 0.0412
- G5C C6G U7C U10C C44G — higher, 4.42
- G5C C6A U7A G8U U10A — higher, 0.0878
- C6A U7C C9A U10C A20G G21C — higher, 3.34
- C6A U7C C9A U10C A20G G21U — higher, 1.35
- A30G A31G — higher, 0.0117
- G5A U7C G8A U10C A45G G46A — higher, 4.51
- G5C C6A U7C G8A U10A C44U A45C — higher, 0.252
- G5C C6A U7C G8A U10A A29C — higher, 0.0911
- G5C C6U G8C C9U U10C A40U G41A — higher, 0.0602
- G5C C6G U7C U10C A29G A30U — higher, 1.79
- G5C C6U G8C C9U U10C G28U A29U — higher, 0.419
- G2U U3C G5C C6U G8C C9U U10C — higher, 3.63
- G5A C6G U7G C9A A29C A30C — lower, 0.00169
- G5U G8U C9U A47G — higher, 0.0159
- G11C G12C — higher, 1.58
- G12C G13A — higher, 1.1
- U3A U4C G5C C6G U7C U10C — higher, 3.45
- G5C C6A U7C G8A U10A A35U C36U — lower, 0.00092
- G5U G8U C9U G21U C22U — higher, 0.0182
- G5A U7C G8A U10C A31U — higher, 2.07
- G5C C6A U7C G8A U10A A20U G21U — higher, 0.037
- G5C C6A U7C G8A U10A A20U G21C — higher, 0.0942
- G5A C6U U7A G8U C9A A14G G15U — higher, 0.00355
- G5A C6U U7C G8A U10C — higher, 2.02
- G5C C6A U7C G8A U10A C16A — higher, 0.0973
- A14U G15A — higher, 0.0161
- A29C A30C — higher, 0.418
- G5A C6G U7G C9A C16U U17G — higher, 0.0132
- G5A U7C G8A U10C A30C A31G — higher, 3.4
- G5A C6U U7A G8U C9A G11U G12U — higher, 0.00843
- G5U G8U C9U G15A C16U — higher, 0.0203
- C6A U7A C9A U10A C24A A25G — higher, 0.796
- G5A C6U U7A G8U C9A U32G G33U — higher, 0.0122
- G5U G8U C9U U32A G33C — higher, 0.219
- G5A C6U U7A G8U C9A A45C G46C — higher, 0.0306
- G5A C6U U7A G8U C9A A23C C24A — higher, 0.0996
- G5C C6U G8C C9U U10C U32G G33U — higher, 0.774
- G5U G8U C9U U32C — higher, 0.344
- G2A U3A — higher, 0.0502
- G5A C6G U7A G8U C9A — higher, 0.00788
- G5A C6U U7A G8U C9A C36G A37U — higher, 0.0196
- G5U G8U C9U A37C G38C — higher, 0.175
- C6A U7C C9A U10C A35U — higher, 1.36
- G5U G8U C9U A30G A31U — higher, 0.0253
- G5U G8U C9U A30G A31C — higher, 0.00346
- G5A C6U U7A G8U C9A U32A G33U — higher, 0.0199
- C16G U17C — higher, 0.114
- U3C U4C C6A U7A C9A U10A — higher, 1.44
- G5C C6U G8C C9U U10C G43A C44G — higher, 3.59
- G5A C6G U7G C9A G12U G13A — lower, 0.000517
- G5A G8U U10C — higher, 1.78
- C6A U7A C9A U10A A45U G46A — higher, 0.485
- G5C C6G U7C U10C G33A G34A — higher, 0.795
- G5C C6U G8C C9U U10C A14G G15A — higher, 1.17
- G5A U7C G8A U10C C18U C19A — higher, 0.212
- G5A U7C G8A U10C C18U C19G — higher, 0.804
- G5C C6G U7C U10C G21A C22G — higher, 3.81
- G5A U7C G8A U10C G46A A47G — higher, 0.953
- G5A C6G U7G C9A A29U A30G — higher, 0.00279
- G5U G8U C9U C19U A20C — higher, 0.0318
- U3C U4C G5U G8U C9U — higher, 0.335
- C6A U7C C9A U10C G33U G34C — higher, 1.4
- G5C C6U G8C C9U U10C A30U — higher, 1.34
- G5C C6G U7C U10C G21U C22A — higher, 1.73
- G5C C6G U7C U10C G33C G34A — higher, 2.48
- G5A U7C G8A U10C G42U G43A — higher, 3.16
- U4C G5C U7C G8A U10C — higher, 1.51
- G5U G8U C9U C24U — higher, 0.0331
- G5C C6U G8C C9U U10C C18G C19U — higher, 0.674
- G5A C6U U7A G8U C9A U27G — higher, 0.0103
- G5C C6G U7C U10C A45U G46A — higher, 2.95
- C6A U7C C9A U10C A40C G41A — higher, 1.84
- G5C C6A U7C G8A U10A G41C G42A — higher, 0.141
- U3A G5C C6A U7C G8A U10A — higher, 0.475
- G5C C6G U7C U10C A30C — higher, 3.57
- G5A U7C G8A U10C A20G G21U — higher, 2.6
- C6A U7C C9A U10C A35U C36G — higher, 0.375
- G5A C6A U7C G8A U10A — higher, 0.063
- C6A U7A C9A U10A G26A U27A — higher, 0.813
- C6A U7C C9A U10C G38A A39C — higher, 2.55
- U4A G5U C6G U7C U10C — higher, 1.96
- G5C C6A U7C G8A U10A A14G G15A — higher, 0.119
- G5C C6A U7C G8A U10A A35G C36A — higher, 0.0625
- C6A G8A C9A U10A — higher, 0.0495
- G5U G8U C9U A25C G26U — higher, 0.328
- G5A C6U U7A G8U C9A A37C G38U — higher, 0.00922
- C6A U7A C9A U10A A39C A40G — higher, 0.849
- G5C C6U G8C C9U U10C A25C — higher, 3.42
- G5C C6A U7C G8A U10A C18G — higher, 0.097
- C6A U7A C9A U10A U27A G28U — higher, 0.247
- G5U G8U C9U G21U — higher, 0.078
- G5U G8U C9U G21C — higher, 0.162
- G5A C6G U7G C9A A45C G46A — lower, 0.000901
- G5A C6G U7G C9A A45C G46U — lower, 0.0014
- G5C C6U G8C C9U U10C G12U G13A — higher, 0.153
- A37C — higher, 0.637
- G5C C6G U7C U10C A45C G46A — higher, 2.12
- G5A U7C G8A U10C U17C C18G — higher, 2.38
- G5A C6G U7G C9A A40G G41A — lower, 0.0007
- G5A C6G U7G C9A C36G A37G — higher, 0.00376
- A47C G48A — higher, 0.0773
- G5A C6G U7G C9A A35U C36A — lower, 0.001
- C6A U7A C9A U10A G34U — higher, 0.123
- C22U — higher, 1.27
- G5A U7C G8A U10C C36A A37G — higher, 1.06
- G5U G8U C9U C18A C19A — higher, 0.00397
- G5U G8U C9U C18A C19G — higher, 0.00406
- C6A U7C C9A U10C G46A A47G — higher, 1.33
- G5A U7C G8A U10A G11U — higher, 1.37
- G5A U7C G8A U10C G48U — higher, 2.83
- U4C G8U C9U — higher, 2.06
- G5A U7C G8A U10C G15U C16A — higher, 1.58
- C6A U7A C9U U10G — higher, 0.0647
- G5C C6A U7C G8A U10A A37G G38A — higher, 0.104
- G5U G8U C9U A39G A40G — higher, 0.00566
- A14G — higher, 0.0948
- G5U G8U C9U A20C G21U — higher, 0.0336
- C6A U7A C9A U10A G15A C16U — higher, 0.351
- G5C C6A U7C G8A U10A G33C — higher, 0.162
- G5A C6U U7A G8U C9A G26A U27A — higher, 0.122
- G5C C6U G8C C9U U10C G26C U27C — higher, 3.12
- G5C C6G U7C U10C C44U A45C — higher, 4.13
- G5A C6G U7G C9A A30G A31C — lower, 0.00143
- G5A C6G U7G C9A A37U — higher, 0.00604
- G5C C6A U7C G8A U10A A40C G41U — higher, 0.0519
- C6A U7A C9A U10A C36A A37G — higher, 0.204
- G5A U7C G8A U10C A45U G46U — higher, 0.84
- C6A U7C C9A U10C A14G G15C — higher, 2.29
- G5C C6U G8C C9U U10C G21C C22A — higher, 1.71
- C6A U7A C9A U10A G38U A39U — higher, 0.0139
- C6A U7C C9A U10C C24A A25G — higher, 2.94
- G5A C6G U7G C9A G13U — lower, 0.000555
- G5C C6A U7C G8A U10A G46A — higher, 0.143
- G5U G8U C9U G21C C22U — higher, 0.151
- C6U G8U C9U — higher, 0.0925
- C6A U7A C9A U10A C16G U17A — higher, 0.533
- C44G A45G — higher, 0.0345
- G5C C6A U7C G8A U10A G42A G43C — higher, 1.53
- G5A U7C G8A U10C G46U A47C — higher, 2.94
- C6A U7A C9A U10A A25U G26A — higher, 0.899
- C6A U7A C9A U10A G33A G34C — higher, 0.0943
- G5C C6A U7C G8A U10A A29U A30C — higher, 0.0766
- G42C G43C — higher, 0.757
- G42C G43A — higher, 0.623
- G5A U7C G8A U10C A29G A30G — higher, 1.92
- G5C C6U G8C C9U U10C A25G G26A — higher, 4.14
